Data as given in paper PMC4277889.
Like-named read-outs stand apart in the source and are kept apart here.

B1: JYK-01 ACP (polydiacetylene conjugate) (ssDNA)
DNA: TGAAGGTTCGTTGTTTCGGTGGGTGTAGACTCTTTAGAAGAGATACAGATTTTGGGAATG
modifications: 5' amine coupled to diacetylene monomer (TCDA) in polydiacetylene particle
B2: random sequence ACP (ssDNA)
DNA: TAAGTATATCGTGCCTGCGACTATGTTATGATGAGGCAGTCTTTAACCTGACTCGTAATA
modifications: 5' conjugated to polydiacetylene as JYK-01

Assays:
[1] = biological target: T1, EpCAM (epithelial cell adhesion molecule) (UniProt P16422 24-265); test: ACP fluorescence switching
T1 sequence: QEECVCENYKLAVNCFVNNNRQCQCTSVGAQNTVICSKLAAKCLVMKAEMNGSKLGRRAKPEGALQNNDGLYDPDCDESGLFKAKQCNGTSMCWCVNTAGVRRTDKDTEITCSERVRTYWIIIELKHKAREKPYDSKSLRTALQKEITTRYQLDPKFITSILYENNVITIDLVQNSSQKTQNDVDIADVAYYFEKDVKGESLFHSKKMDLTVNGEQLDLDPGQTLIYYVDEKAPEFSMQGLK

[2] = biological target: T1, EpCAM (epithelial cell adhesion …); test: ACP fluorescence switching; remark: listed apart in the source

| Binder | binding result [1] | binding result [2] |
| --- | --- | --- |
| B1 | binds | – |
| B2 | – | no binding |
